# Source: patent US20210139610A1, “COMPOSITIONS AND METHODS FOR MEDIATING EPS” (priority 2018, published 2021)
# Entries after “also recorded” stand apart in the source; their conditions may differ.
# Key:
# preformed NTHI biofilms = assay: Disruption of pre-formed NTHI biofilms (treatment after initial growth; LIVE/DEAD, CLSM, COMSTAT); format: cell-based, Non-typeable Haemophilus influenzae; conditions: DNase (Pulmozyme) added at 24 h
# Description: (FIG. 18A) Biofilm growth was initiated then maintained for 24 hrs then treated for 16 hrs with 0 (SBHI Control), 0.1%, 1%, and 5% (w/v) of Phoshocellulose (P11). (FIG. 18B) Biofilm growth was initiated then maintained for 40 hrs in the presence of 0 (sBHI Control), 0.1%, 1%, and 5% (w/v) of (P11). Biofilms were washed with saline and stained with LIVE/DEAD® stain. Images were analyzed by COMSTAT to calculate average thickness and biomass. All images were captured with a 63× objective.
# 21:65-7. Pulmozyme® was added either at seeding (biofilm prevention) or to pre-formed biofilms (biofilm disruption) (FIG. 6). The resultant biofilms were stained with LIVE/DEAD® and evaluated using CLSM and COMSTAT analysis.
# To determine anti-biofilm activity of cation exchange resins on preformed biofilms (i.e. ability to disrupt an extant biofilm), NTHI growth was initiated and maintained for 24 hrs, then treated for 16 hrs with 0 (sBHI Control), 0.1, 1, or 5% (w/v) of P11 phosphocellulose (FIG. 18A). To determine the anti-biofilm activity of cation exchange resins to prevent biofilm formation, NTHI growth was initiated and maintained in the presence of 0 (sBHI Control), 0.1, 1, and 5% w/v of P11 phosphocellulose (FIG. 18B) or 5% (w/v) heparin sepharose (FIG. 19). Biofilms were washed with saline and stained with LIVE/DEAD®, visualized with confocal scanning microscopy (CSLM) and analyzed by COMSTAT to determine average thickness and biomass.
# UPEC biofilms = assay: UPEC in vitro biofilm prevention (at seeding) / disruption (at 24 h); format: cell-based, uropathogenic Escherichia coli (UPEC)
# Description: FIG. 6: Mature biofilms are resistant to disruption by DNase. DNase (Pulmozyme; 5 units) was added at seeding (prevention) or at 24 h (disruption) to the respective in vitro preformed NTHI and UPEC biofilms. After a total of 40 h, biofilms were stained with LIVE/DEAD®, visualized via CLSM and analyzed by COMSTAT. Bars represent the SEM. Statistical significance compared to control was assessed by unpaired t-tests, *P<0.05; **P<0.01.
# FIGS. 35A-35D: DNABII proteins and polyamines (PAs) interact synergistically to induce DNase resistance. […] Biofilms were stained, fixed, visualized via CLSM, and analyzed by COMSTAT. […] Statistical significance compared to Control (No DNase) was assessed by unpaired t-tests, **P<0.01.
# FIG. 49: Z-DNA stabilization stimulates biofilm formation. […] Biofilms were stained, fixed, visualized via CLSM, and analyzed by COMSTAT. […] Statistical significance compared to Control (no antibodies) was assessed by paired t-tests, *P<0.05, **P<0.01.
# Applicants evaluated the antibiofilm effect of Pulmozyme®, a recombinant human DNase that is used in conjunction with standard therapies for the management of cystic fibrosis (CF) patients to improve pulmonary function. […] The resultant biofilms were stained with LIVE/DEAD® and evaluated using CLSM and COMSTAT analysis.
molecule,measurement,setting,value
"DNase: Pulmozyme, a recombinant human DNase used for management of cystic fibrosis patients (protein, UniProt P24855 23-282, looked up) Deoxyribonuclease-1: LKIAAFNIQTFGETKMSNATLVSYIVQILSRYDIALVQEVRDSHLTAVGKLLDNLNQDAPDTYHYVVSEPLGRNSYKERYLFVYRPDQVSAVDSYYYDDGCEPCGNDTFNREPAIVRFFSRFTEVREFAIVPLHAAPGDAVAEIDALYDVYLDVQEKWGLEDVMLMGDFNAGCSYVRPSQWSSIRLWTSPTFQWLIPDSADTTATPTHCAYDRIVVAGMLLRGAVVPDSALPFNFQAAYGLSDQLAQAISDHYPVEVMLK",NTHI mature biofilm disruption,preformed NTHI biofilms,unable to disrupt mature biofilms; also recorded: not disrupt extant biofilms
same,UPEC mature biofilm disruption,UPEC biofilms; DNase (Pulmozyme) added at 24 h,unable to disrupt mature biofilms; also recorded: not disrupt extant biofilms
same,"UPEC biofilm prevention (average thickness, biomass)",UPEC biofilms; DNase (Pulmozyme) added at seeding,significant reduction in average thickness and biomass of NTHI and UPEC biofilms; also recorded: can prevent
